Measurements taken from article PMC10474464, “The mRNA binding-mediated self-regulatory function of small heat shock protein IbpA in γ-proteobacteria is conferred by a conserved arginine” (The Journal of Biological Chemistry, 2023).

T1: Escherichia coli inclusion body-associated protein B (Escherichia coli, UniProt P0C058 1-142)
T1 construct: Small heat shock protein IbpB of Escherichia coli; also called IbpBEc; His-IbpBEc; source: purified with Ni-NTA agarose upon denaturation by 6 M urea
T1 sequence (looked up): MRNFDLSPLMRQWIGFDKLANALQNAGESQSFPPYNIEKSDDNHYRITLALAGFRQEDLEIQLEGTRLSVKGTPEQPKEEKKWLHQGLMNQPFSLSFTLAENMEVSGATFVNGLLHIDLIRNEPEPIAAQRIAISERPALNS


Legend:
[1] = target: T1, Escherichia coli inclusion …; experiment: co-sedimentation; sucrose density gradient centrifugation: IbpAEc (3 μM) and IbpBEc (7 μM) in buffer F incubated at room temperature for 30 min, 10% to 30% (w/v) sucrose gradient; SDS-PAGE with 6 M urea and CBB staining; settings: both partners purified
[2] = target: the molecule itself; experiment: sucrose density gradient centrifugation; purified IbpA (3 μM, dimeric units) alone in buffer F (50 mM Hepes-KOH pH 7.6, 0.1 M KCl, 5 mM DTT, 20 mM Mg-acetate) on a 10% to 30% (w/v) sucrose gradient, SW 41 Ti, 35,000 rpm, 4 °C, 80 min; fractions by SDS-PAGE with Western blot (anti-IbpA) or CBB staining; oligomeric state

| Binder | binding result [1] | binding result [2] |
| --- | --- | --- |
| Escherichia coli inclusion body-associated protein A, wild type (natural protein, UniProt P0C054 1-137, looked up, Small heat shock protein IbpA of Escherichia coli, expressed from pCA24N-ibpAEc; also called IbpAEc; IbpAEc-WT; source: E. coli BW25113ΔAB, overexpressed (0.5 mM IPTG), purified (anion exchange chromatography)) MRNFDLSPLYRSAIGFDRLFNHLENNQSQSNGGYPPYNVELVDENHYRIAIAVAGFAESELEITAQDNLLVVKGAHADEQKERTYLYQGIAERNFERKFQLAENIHVRGANLVNGLLYIDLERVIPEAKKPRRIEIN | binds | binds |
| Escherichia coli inclusion body-associated protein A, R93A mutant (natural protein, UniProt P0C054 1-137, looked up, Small heat shock protein IbpA of Escherichia coli with R93A, made by site-directed mutagenesis of pCA24N-ibpAEc; also called IbpAEc-R93A; IbpA-R93A; source: E. coli BW25113ΔAB, overexpressed (0.5 mM IPTG), purified (anion exchange chromatography)) MRNFDLSPLYRSAIGFDRLFNHLENNQSQSNGGYPPYNVELVDENHYRIAIAVAGFAESELEITAQDNLLVVKGAHADEQKERTYLYQGIAEANFERKFQLAENIHVRGANLVNGLLYIDLERVIPEAKKPRRIEIN | binds | binds |
